From patent US20210070847A1 (UNIVERSITY OF FLORIDA RESEARCH FOUNDATION, published 2021)
Changes are numbered by the printed parent chain.

T1: recombinant glutathione S-transferase (GST) tagged human tau MTBD R4 (human)
T1 construct: Expressed in E. coli; total bacterial lysates were blotted after SDS-PAGE; also called GST/R4; not shown: glutathione S-transferase (GST) tag encoded by bacterial expression plasmid pGEX-2T; junction
T1 chain: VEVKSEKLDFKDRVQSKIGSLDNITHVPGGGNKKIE

B1: monoclonal antibody 94-3A2-2 (antibody, V domains shown)
VH: QVQLQQSGAELAKPGASVKMSCKASGYTFTTYWMHWIKQRPGQGLEWIGYINPSNDYTEYNQKFKDEATLTVDKSSSTAYMQLNSLISEDSAVYYCAHPAYWGQGTLVTVSS
VL: ENVLTQSPAIMSASPGEKVTMTCSASSSVNYMHWYQQKSGTSPKLWIYDTSKLASGVPGRFSGSGSGNSYSLTISSMEAEDVATYYCFQGSGYPFTFGSGTKLEIKR
B2: monoclonal antibody 94-3A6 (antibody, V domains shown)
VH: QVQLQQPGTELVKPGASVKLSCKASGYPFTNYWMHWVKQRPGQGLEWIGNINPTNGDTNYNEKFKSKATLTVDKSSSTAYMQLSSLTSEDSAVYYCTRVTYWGQGTTLTVSS
VL: B1 VL with S28N, Y35F, K38E, G40S, F95Y, S99G

Experiments:
[1] = target: T2, recombinant full-length human 2N/3R tau (human, UniProt P10636 2-758); test: immunoblot of recombinant tau proteins
T2 construct: Expressed in E. coli from pRK172 and purified; also called 3-repeat tau

[2] = target: T3, recombinant full-length human 2N/4R tau (human, UniProt P10636 2-758); test: immunoblot of recombinant tau proteins
T3 construct: Expressed in E. coli from pRK172 and purified; also called 4-repeat tau

[3] = target: T4, human 1N4R tau with the P301S mutation (expressed in PS19 tau transgenic mice) (human, UniProt P10636 1-758); test: immunoblot of total mouse brain lysates
T4 construct: Tested in total brain lysates (immunoblot) and spinal cord sections (immunohistochemistry) of PS19 mice; also called human tau in PS19 mice; over-expressed 1N4R human tau in PS19 brain
Procedure: Preparation of total mouse brain protein lysates Tau KO, PS19 Tg or NTg mice were euthanized by CO₂ inhalation and the brains were harvested. Brain tissue was homogenized in 2% SDS/50 mM Tris, pH 7.5 using a probe sonicator and then incubated for 10 min at 100° C. Protein concentrations were determined by BCA assay using BSA as the standard. Sample buffer was added and equal amounts of protein (10 μg) were resolved by SDS-PAGE and analyzed by immunoblot.
To assess the selectivity of these antibodies for human tau, immunoblots of total mouse brain lysates from tau KO, NTg and PS19 tau Tg mice were probed with these antibodies (FIG. 3). All of these antibodies detected human tau in whole brain lysates from PS19 mice. Antibodies 81A11, 83E4 and 94-3A2-2 reacted weakly with endogenous tau in NTg mice. […] All the antibodies were specific for tau as shown using the lysates from tau KO mice. A non-specific band at approximately 30 kDa present in all the lysates was attributed to non-specific binding of the secondary antibody shown with an immunoblot probed only with secondary antibody.

[4] = target: T5, human 0N4R tau with the P301L mutation (expressed in JNPL3 tau transgenic mice) (human, UniProt P10636 1-758); test: immunohistochemistry of spinal cord sections
T5 construct: Tested as inclusions in spinal cord sections of JNPL3 mice; also called tau inclusions of JNPL3 mice
Procedure: Paraffin embedded tissues from JNPL3 tau transgenic, PS19 tau-transgenic and non-transgenic (NTg) mice were used. All paraffin embedded, formalin fixed human brain tissues from de-identified donors were obtained through a human brain tissue bank. Sequential tissue sections were deparaffinized with xylenes and sequentially rehydrated with graded ethanol solutions (100-70%). Antigen retrieval was performed by incubating sections in a steam bath for 30 minutes. Endogenous peroxidase activity was quenched with 1.5% hydrogen peroxide/0.005% Triton-X-100/Tris-buffered Saline (TBS) for 20 minutes. Sections were blocked with 2.5% horse serum then incubated overnight at 4° C. with primary antibody. Following washing with TBS, sections were incubated with Vector ImmPress anti-mouse IgG peroxidase (Vector Laboratories, Burlingame, Calif., USA) for 30 minutes. Sections were washed with TBS and then developed with 3, 3′diaminobenzidine (DAB kit; Vector Laboratories). Reactions were stopped by immersing the slides in TBS and sections were counterstained with Mayer's hematoxylin (Sigma Aldrich, St. Louis, Mo.). Next, sections were dehydrated with an ascending series of ethanol solutions (70%-100%) followed by xylenes and coverslipped using cytoseal (Thermo Scientific, Waltham, Mass.).
Each of the 83E4, 94-3A2-2, 94-3A6 and 94-4F1 binds R4 and can recognize 3- and 4-repeat tau. […]

[5] = target: T1, recombinant glutathione S-transferase …; test: summary of immunoblots of GST-tagged MTBD fragments
Description: For the generation of recombinant glutathione S-transferases (GST) tagged human MTBD R1-3 (residues 244-336 relative to ON/4R tau), R1 (residues 244-274 relative to ON/4R tau), R3 (residues 306-336 relative to ON/4R tau) and R4 (residues 337-372 relative to ON/4R tau) proteins, the corresponding cDNA sequences were amplified by PCR with the respective oligonucleotides with added BamHI and EcoRI restriction sites and cloned in these sites of bacterial expression plasmid pGEX-2T. These proteins were expressed in E. coli BL21 (DE3)/RIL with isopropyl β-D-1-thiogalactopyranoside induction. The bacteria were lysed with 2% SDS and following the addition of SDS sample buffer equal amounts of total bacterial lysates were resolved by SDS-PAGE and analyzed by immunoblotting.
Mice were immunized with the synthetic peptides corresponding to the MTBD in 4R human tau 244-372 (K18) conjugated to 21-140 αS at the N-terminus or 21-140 αS at the N-terminus and Aβ1-42 at the C-terminus. […] This selectivity for tau was also confirmed by detection of tau pathology by immunohistochemistry of human AD post-mortem brain tissue with abundant tau pathology. […] The specificity of these monoclonal antibodies was further determined by probing immunoblots of recombinant full-length human 2N/3R and 2N/4R tau and K18 (4R) tau fragment (FIG. 2). […]

Aβ = Aβ (UniProt P05067 672-713); test: ELISA screening of hybridoma media on coated peptide
Procedure: (§1) All hybridoma clones were screened for reactivity to K18 by enzyme-linked immunosorbent assay (ELISA). MaxiSorp plates (Thermo Scientific, Waltham, Mass.) or Immulon 4HBX plates (ThermoFisher Scientific, Waltham, Mass.) were coated with 1 μg/ml human recombinant tau or αS proteins or Aβ in PBS or 100 mM sodium bicarbonate and blocked with 5% FBS/PBS or 1% Block ACE in PBS. Media from the hybridomas were applied to plates, which were then incubated at room temperature for 3 hours. Next, the plates were washed with PBS and incubated with goat anti-mouse secondary antibody conjugated to horse radish peroxidase (HRP; Jackson Immuno Research Labs, West Grove, Pa.) for 1 hour at room temperature. Then, plates were washed and TMB substrates (Pierce, Rockford, Ill.) were applied until color changes were observed. Reactions were then quenched with 1M HCl or 85% 0-Phosphoric acid and absorbance was measured at 450 nm. Clones that were positive by ELISA were transferred to larger culture plates as needed. […]
(§2) Mice were immunized with the synthetic peptides corresponding to the MTBD in 4R human tau 244-372 (K18) conjugated to 21-140 αS at the N-terminus or 21-140 αS at the N-terminus and Aβ1-42 at the C-terminus. […] The specificity of these monoclonal antibodies was further determined by probing immunoblots of recombinant full-length human 2N/3R and 2N/4R tau and K18 (4R) tau fragment (FIG. 2). […]

[6] = target: recombinant human α-synuclein (human, UniProt P37840 1-140); test: ELISA screening of hybridoma media on coated protein
Procedure: as §1, §2

T4 sequence (P10636 other isoform, or with tags, fused parts or gaps P301S P301S limits assumed): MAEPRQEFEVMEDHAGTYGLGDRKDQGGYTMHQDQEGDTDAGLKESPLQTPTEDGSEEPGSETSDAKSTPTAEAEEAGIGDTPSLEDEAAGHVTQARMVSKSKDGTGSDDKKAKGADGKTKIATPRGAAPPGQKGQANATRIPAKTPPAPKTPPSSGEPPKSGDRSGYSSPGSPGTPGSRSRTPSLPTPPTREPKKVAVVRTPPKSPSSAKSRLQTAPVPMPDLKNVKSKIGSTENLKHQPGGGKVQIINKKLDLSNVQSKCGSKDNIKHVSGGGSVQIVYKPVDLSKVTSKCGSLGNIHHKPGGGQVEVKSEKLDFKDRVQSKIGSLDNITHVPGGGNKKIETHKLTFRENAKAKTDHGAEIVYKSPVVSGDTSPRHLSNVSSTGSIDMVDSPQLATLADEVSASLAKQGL
Aβ, sequence (P05067 672-713): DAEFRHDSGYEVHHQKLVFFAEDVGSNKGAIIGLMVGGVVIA
T3 sequence (P10636 other isoform, or with tags, fused parts or gaps limits assumed): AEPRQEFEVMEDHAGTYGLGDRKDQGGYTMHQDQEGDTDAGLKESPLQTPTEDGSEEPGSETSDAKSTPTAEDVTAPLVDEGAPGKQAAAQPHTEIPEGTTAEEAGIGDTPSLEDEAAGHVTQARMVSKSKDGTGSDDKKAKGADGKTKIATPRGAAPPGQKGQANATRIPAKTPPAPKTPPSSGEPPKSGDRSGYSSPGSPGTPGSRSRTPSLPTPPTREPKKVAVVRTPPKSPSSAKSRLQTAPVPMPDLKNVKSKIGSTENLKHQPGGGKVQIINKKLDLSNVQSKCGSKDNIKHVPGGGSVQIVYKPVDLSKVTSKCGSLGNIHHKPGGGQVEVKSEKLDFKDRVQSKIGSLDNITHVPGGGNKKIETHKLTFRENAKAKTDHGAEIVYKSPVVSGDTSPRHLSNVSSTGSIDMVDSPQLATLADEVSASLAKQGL
T5 sequence (P10636 other isoform, or with tags, fused parts or gaps P301L P301L limits assumed): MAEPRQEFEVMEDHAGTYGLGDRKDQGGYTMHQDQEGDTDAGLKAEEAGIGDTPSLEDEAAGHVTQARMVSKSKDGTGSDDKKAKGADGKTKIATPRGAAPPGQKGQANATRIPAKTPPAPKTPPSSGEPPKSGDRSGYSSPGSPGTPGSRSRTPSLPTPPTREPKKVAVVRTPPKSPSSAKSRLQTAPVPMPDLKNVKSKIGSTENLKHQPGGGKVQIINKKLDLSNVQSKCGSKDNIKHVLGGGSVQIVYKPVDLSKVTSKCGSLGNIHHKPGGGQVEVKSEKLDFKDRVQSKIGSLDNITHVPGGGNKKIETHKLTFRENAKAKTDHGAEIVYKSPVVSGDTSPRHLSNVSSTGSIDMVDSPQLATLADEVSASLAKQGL
T2 sequence (P10636 other isoform, or with tags, fused parts or gaps limits assumed): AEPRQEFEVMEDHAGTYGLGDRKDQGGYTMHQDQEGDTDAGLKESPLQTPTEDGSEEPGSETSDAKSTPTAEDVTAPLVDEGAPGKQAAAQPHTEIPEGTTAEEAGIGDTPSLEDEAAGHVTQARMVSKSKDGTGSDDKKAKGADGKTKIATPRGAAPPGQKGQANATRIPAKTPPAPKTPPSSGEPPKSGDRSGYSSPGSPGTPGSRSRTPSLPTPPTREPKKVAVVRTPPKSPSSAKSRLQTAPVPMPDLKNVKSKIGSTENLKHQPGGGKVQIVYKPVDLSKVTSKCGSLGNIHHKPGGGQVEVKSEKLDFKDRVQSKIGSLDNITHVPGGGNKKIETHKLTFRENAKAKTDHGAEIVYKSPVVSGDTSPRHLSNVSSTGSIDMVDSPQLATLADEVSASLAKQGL

| Binder | binding result [1] | binding result [2] | binding result [3] | binding result [4] | binding result [5] | binding result (Aβ) | binding result [6] |
| --- | --- | --- | --- | --- | --- | --- | --- |
| B1 | binds | binds | binds | binds | binds | no binding | no binding |
| B2 | binds | binds | binds | binds | binds | no binding | no binding |
